For assay [1], the target named is HLA-A*02:03. The assay is described as follows: IEDB peptide-MHC binding, purified MHC/competitive/fluorescence; filed as Kd, often an IC50 or EC50 that approximates it; ≥ and ≤ were set here for values at or beyond the usual limits of such assays.
Assay [2] concerns the target HLA-B*39:01. The description is as above.
Assay [3] has as its target HLA-A*30:01. The description is as above. The conditions noted are these: source organism: Human immunodeficiency virus 1.
The target in assay [4] is HLA-A*31:01. The assay is described as above. The following applies: source organism: Human immunodeficiency virus 1.
Assay [5] has as its target HLA-A*02:06. The description is as above. The following applies: source organism: Human immunodeficiency virus 1.
The target of assay [6] is HLA-B*51:01. Described as above.
Assay [7] concerns the target HLA-A*02:01. The description is as above.
Assay [8] addresses HLA-A*02:12. The assay is described as above.
For assay [9], the target named is HLA-B*46:01. The assay is described as above.
Assay [10] addresses HLA-A*26:01. The assay is described as above.
The target of assay [11] is HLA-B*57:01. The assay is described as above.
The target of assay [12] is HLA-B*27:03. Described as above.
Assay [13] concerns the target HLA-B*15:01. Described as above.
Assay [14] has as its target HLA-A*69:01. The description is as above.
Assay [15] addresses HLA-A*03:01. The description is as above.
Assay [16] addresses HLA-B*18:01. Described as above.
Assay [17] concerns the target HLA-A*68:02. The assay is described as above.
Assay [18] has as its target HLA-B*07:02. Described as above.
Assay [19] addresses HLA-B*35:01. The description is as above.
The target of assay [20] is HLA-A*29:02. Described as above.
Assay [21] addresses HLA-A*02:19. The description is as above.
For assay [22], the target named is HLA-A*23:01. The description is as above. The following applies: source organism: Rickettsia sibirica 246.
For assay [23], the target named is HLA-B*08:01. The description is as above. The following applies: source organism: Yersinia pestis Nepal516.
The target of assay [24] is HLA-A*24:03. The description is as above.
The target of assay [25] is HLA-B*15:17. The assay is described as above. The conditions noted are these: source organism: Vibrio parahaemolyticus AQ3810.
For assay [26], the target named is HLA-C*03:03. The assay is described as follows: IEDB peptide-MHC binding, purified MHC/direct/fluorescence; filed as Kd, often an IC50 or EC50 that approximates it; ≥ and ≤ were set here for values at or beyond the usual limits of such assays.
The target in assay [27] is HLA-A*02:11. Briefly: IEDB peptide-MHC binding, purified MHC/competitive/fluorescence; filed as Kd, often an IC50 or EC50 that approximates it; ≥ and ≤ were set here for values at or beyond the usual limits of such assays. The following applies: source organism: Entamoeba histolytica HM-1:IMSS.
For assay [28], the target named is HLA-A*02:03. Briefly: IEDB peptide-MHC binding, purified MHC/direct/fluorescence; filed as Kd, often an IC50 or EC50 that approximates it; ≥ and ≤ were set here for values at or beyond the usual limits of such assays. The following applies: source organism: Orthohantavirus andesense.
In assay [29] the target is HLA-A*02:12. Described as above. The following applies: source organism: Orthohantavirus andesense.
The target in assay [30] is HLA-A*02:11. The assay is described as above. The conditions noted are these: source organism: Orthohantavirus andesense.
Assay [31] deals with HLA-A*02:19. The assay is described as above. The conditions noted are these: source organism: Orthohantavirus andesense.
The target of assay [32] is HLA-A*02:16. The description is as above. The following applies: source organism: Orthohantavirus andesense.
In assay [33] the target is HLA-A*03:01. The description is as above. The following applies: source organism: Orthohantavirus andesense.
Assay [34] has as its target HLA-A*68:02. Described as above. The conditions noted are these: source organism: Orthohantavirus andesense.
[35] abbreviates: source organism: Human immunodeficiency virus 1.
Setting [36] is: source organism: Yersinia pestis Nepal516.
Setting [37] is: source organism: Bacillus cereus G9241.
Setting [38] is: source organism: Entamoeba dispar SAW760.
Where [39] appears, read: source organism: Vibrio parahaemolyticus AQ3810.
[40] abbreviates: source organism: Giardia lamblia ATCC 50803.
[41] abbreviates: source organism: Entamoeba histolytica HM-1:IMSS.
[42] abbreviates: source organism: Orthohantavirus andesense.

EKLKSLYNTI: the dissociation constant Kd came out at 0.0239 µM in assay [1] (setting [35]); 0.747 µM in assay [2] (setting [35]); 0.072 µM in assay [3]; 4.47 µM in [4]; 3.71 µM in assay [5].

For ILHRLAPWI, the dissociation constant (Kd) in assay [6] (setting [36]) was not below 20 µM; in [7] (setting [36]), 0.0473 µM; in assay [8] (setting [36]), 0.103 µM; in assay [9] (setting [36]), not below 20 µM; in [2] (setting [36]) it was not below 20 µM; in assay [10] (setting [36]), not below 20 µM. Also, the Kd in assay [11] (setting [36]), in assay [12] (setting [36]), in assay [13] (setting [36]), in assay [14] (setting [36]), in assay [15] (setting [36]) and in assay [16] (setting [36]) was not below 20 µM each time. The sequence also returned an equilibrium dissociation constant (Kd) in [17] (setting [36]) not below 20 µM.

With IPLSILLTL, the Kd in [6] (setting [37]) was found to be 0.954 µM; in [18] (setting [37]), 0.028 µM; in assay [19] (setting [37]), 0.0004 µM.

For KDGTLFYCY, the dissociation constant Kd in assay [20] (setting [38]) is 0.106 µM; in [6] (setting [38]), not below 20 µM; in [1] (setting [38]) it was not below 20 µM; in assay [8] (setting [38]), not below 20 µM; in assay [9] (setting [38]) it was not below 20 µM; in assay [2] (setting [38]), not below 20 µM. Also, the dissociation constant (Kd) in assay [10] (setting [38]), in assay [11] (setting [38]), in assay [12] (setting [38]), in [13] (setting [38]), in assay [21] (setting [38]) and in assay [14] (setting [38]) was not below 20 µM throughout. Besides, the dissociation constant Kd in assay [15] (setting [38]) and in assay [17] (setting [38]) was not below 20 µM throughout.

As for KFVAGAMNI, in assay [22], the Kd stood at 0.0117 µM.

Turning to LPLNRAYPL, the Kd in [23] was 0.06 µM; in assay [6] (setting [36]) it was 2.57 µM; in assay [2] (setting [36]), 0.0093 µM; in [18] (setting [36]), 0.0063 µM; in assay [19] (setting [36]), not above 0.0001 µM.

MLTNASGHA: the Kd is not below 20 µM in assay [20] (setting [39]); not below 20 µM in assay [6] (setting [39]); 0.2 µM in assay [7] (setting [39]); 0.438 µM in [8] (setting [39]); not below 20 µM in [9] (setting [39]); not below 20 µM in [2] (setting [39]). For the same sequence, the Kd in [10] (setting [39]), in [11] (setting [39]), in assay [12] (setting [39]), in assay [13] (setting [39]), in assay [21] (setting [39]) and in assay [14] (setting [39]) was not below 20 µM each time. Besides, the equilibrium dissociation constant (Kd) in assay [15] (setting [39]), in [16] (setting [39]), in assay [24] (setting [39]) and in assay [25] was not below 20 µM each time.

In assay [18] (source organism: Influenza A virus (A/Denver/1957(H1N1))), RIRFVQNAL came in with a Kd of 0.0199 µM.

In the case of RLREALCAV, the Kd in [26] (source organism: Mycobacterium tuberculosis str. Haarlem) is not below 20 µM.

The sequence RMAATAQVL showed a Kd in assay [26] (source organism: Mycobacterium tuberculosis C) of 0.012 µM.

TELPLAYER: the Kd in assay [6] (setting [40]), in [1] (setting [40]), in assay [7] (setting [40]), in assay [8] (setting [40]), in assay [9] (setting [40]) and in assay [2] (setting [40]) was not below 20 µM in each case. Besides, the equilibrium dissociation constant (Kd) in assay [10] (setting [40]), in assay [11] (setting [40]), in [12] (setting [40]), in assay [13] (setting [40]), in [21] (setting [40]) and in assay [15] (setting [40]) was not below 20 µM in each case. The Kd in assay [16] (setting [40]) was 0.395 µM; in assay [24] (setting [40]), not below 20 µM.

Turning to TLPGCLIIL, the Kd was not below 20 µM in assay [6] (setting [41]); not below 20 µM in [9] (setting [41]); not below 20 µM in assay [2] (setting [41]); 4.65 µM in assay [27]; not below 20 µM in assay [10] (setting [41]); not below 20 µM in assay [11] (setting [41]). The dissociation constant (Kd) in assay [12] (setting [41]), in assay [13] (setting [41]), in assay [15] (setting [41]) and in assay [16] (setting [41]) was not below 20 µM in each case.

VFTSRIQVI: the equilibrium dissociation constant (Kd) in assay [28], in assay [29], in assay [30], in [31], in assay [32] and in assay [33] was not below 20 µM in each case. The dissociation constant (Kd) in [34], in assay [6] (setting [42]), in assay [7] (setting [42]), in assay [9] (setting [42]), in assay [2] (setting [42]) and in assay [10] (setting [42]) was not below 20 µM in each case. Besides, the dissociation constant Kd in assay [11] (setting [42]) was not below 20 µM; in assay [12] (setting [42]), not below 20 µM; in assay [14] (setting [42]) it was not below 20 µM; in assay [16] (setting [42]) it was not below 20 µM; in [24] (setting [42]), 0.0246 µM.

Broadly, the Kd is the equilibrium constant for the complex coming apart. Read a low Kd as a tighter complex.

The record behind these values is the Immune Epitope Database (IEDB).
